Reference: patent US20080292632A1 (US Dept. of Health and Human Services, published 2008)

Biological target: T1, CD30-Fc fusion protein (human, UniProt P28908 19-385)
T1 construct: extracellular domain; Negative control antigen; not shown: human IgG1 hinge and Fc of pRB-2k1-CD30
T1 sequence (looked up): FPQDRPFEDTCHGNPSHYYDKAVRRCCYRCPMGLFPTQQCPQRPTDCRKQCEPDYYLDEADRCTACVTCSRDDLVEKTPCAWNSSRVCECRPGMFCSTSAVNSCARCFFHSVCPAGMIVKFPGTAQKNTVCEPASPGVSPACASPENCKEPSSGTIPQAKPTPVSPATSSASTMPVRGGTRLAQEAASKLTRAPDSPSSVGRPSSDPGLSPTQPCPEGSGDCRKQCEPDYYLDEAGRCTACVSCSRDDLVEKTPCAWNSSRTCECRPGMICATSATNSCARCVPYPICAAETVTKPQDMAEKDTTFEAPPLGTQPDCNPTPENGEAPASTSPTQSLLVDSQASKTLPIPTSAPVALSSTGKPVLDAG
Test: ELISA

B1: F25 (antibody, IgG2a, V domains shown)
VH: EVQLQQSGPELVKPGTSVKMSCKASGYSFTGYFMNWMMQNHGKSLEWIGRINLYNGDTFYNQKFKDKATLTVDKSSNTVHMEFRSLASEDSAVYYCASSLYYFDYWGQGTTFTVSS
VL: DIVMTQSHKFMSTSVGDRVNITCKASQDVGTNVAWYQQKPGQSPKLLIYWASTRQTGVPDRFTGSGSGTDFTLTISNVQSEDLSDYFCQQYSSYPLTFGAGTKLELKR
notes: mouse hybridoma MAb, IgG2a, kappa; also called MAb F25; biotin-MAb F25
  binding result: no binding
